Experiment [1] has as its target T1, streptavidin (UniProt P22629 37-163, limits assumed).
T1 construct: Bought from Pierce; Used free in solution in the HABA assay and immobilized on agarose resin in the fusion protein experiments; also called agarose immobilized streptavidin
Put plainly: HABA competition, 50 µM HABA-streptavidin complex, absorbance at 500 nm. As to the method:
(§1) FIG. 1: Competitive ligand binding analysis of […] Error bars indicate the standard deviation of three separate assays.
After 60 minutes, the absorbance of the complex was monitored at 500 nm. To calculate the IC₅₀s of the selected peptides, the average of three separate trials were fitted to the Hill equation, […]

In experiment [2] the target is T2, NeutrAvidin (UniProt P02701 25-152, chemically deglycosylated and chemically modified to a more neutral isoelectric point (pI=6.3)).
T2 construct: Bought from Pierce; also called NA; deglycosylated avidin
Put plainly: HABA competition, 50 µM HABA-NeutrAvidin complex, absorbance at 500 nm, IC50 converted by Cheng-Prusoff. As to the method:
(§2) After 60 minutes, the absorbance of the complex was monitored at 500 nm. To calculate the IC₅₀s of the selected peptides, the average of three separate trials were fitted to the Hill equation,
(§3) Best fit equations were calculated using KaleidaGraph (Synergy Software).

Experiment [3] has as its target T3, avidin (hen egg white (chicken), UniProt P02701 25-152, glycosylated native state).
T3 construct: Bought from Pierce; also called glycosylated parent of NeutrAvidin
Put plainly: HABA competition, 50 µM HABA-avidin complex, absorbance at 500 nm, IC50 converted by Cheng-Prusoff. The procedure:
as §2, §3

The target in experiment [4] is T2, NeutrAvidin. Briefly: HABA competition, uncyclized peptides (the filing cites 'FIG. 3B'; FIG. 1B holds these curves). The procedure:
as §1, §2, §3

Bridges are numbered along the chain shown (N, C = ends). Where no end group is shown, it is not given here. Some results are limits rather than exact numbers.

B1: cyclized CDRASPYCG (SEQ ID NO: 7) (peptide)
peptide: CDRASPYCG-NH2
modifications: disulfide 1-8; N-terminus assumed
SMILES: C[C@@H]1NC(=O)[C@H](CCCNC(=N)N)NC(=O)[C@H](CC(=O)O)NC(=O)[C@@H](N)CSSC[C@@H](C(=O)NCC(N)=O)NC(=O)[C@H](Cc2ccc(O)cc2)NC(=O)[C@@H]2CCCN2C(=O)[C@H](CO)NC1=O
notes: Synthetic peptide from Fmoc synthesis on RinkAmide resin, oxidised in PBS with 10% DMSO; also called cyclic DRASPY peptide
Turning to B1, the values for the Kd in experiment [1], in experiment [2] and in experiment [3] were over 5000 µM, 31.5 µM and 44.9 µM, respectively.

B2: uncyclized CDRATPYCG (SEQ ID NO: 9) (peptide)
peptide: CDRATPYCG-NH2
modifications: cysteine pairing not given here
notes: Same peptide as m2, used as the linear form; also called linear DRATPY peptide; acyclic counterpart
For B2, the Kd in experiment [4] was under 500 µM.

B3: cyclized CDRATPYCG (SEQ ID NO: 9) (peptide)
peptide: CDRATPYCG-NH2
modifications: disulfide 1-8; N-terminus assumed
SMILES: C[C@@H]1NC(=O)[C@H](CCCNC(=N)N)NC(=O)[C@H](CC(=O)O)NC(=O)[C@@H](N)CSSC[C@@H](C(=O)NCC(N)=O)NC(=O)[C@H](Cc2ccc(O)cc2)NC(=O)[C@@H]2CCCN2C(=O)[C@H]([C@@H](C)O)NC1=O
notes: Synthetic peptide from Fmoc synthesis on RinkAmide resin, oxidised in PBS with 10% DMSO; also called cyclic DRATPY peptide
As for B3, the results for the Kd in experiment [1], in experiment [2] and in experiment [3] were over 5000 µM, 12.5 µM and 28.1 µM, respectively.

B4: uncyclized CDRASPYCG (SEQ ID NO: 7) (peptide)
peptide: CDRASPYCG-NH2
modifications: cysteine pairing not given here
notes: Same peptide as m1, used as the linear form; also called linear DRASPY peptide; acyclic counterpart
As for B4, the Kd in experiment [4] was under 500 µM.

B5: cyclized CDLASPWCG (SEQ ID NO: 5) (peptide)
peptide: CDLASPWCG-NH2
modifications: disulfide 1-8; N-terminus assumed
SMILES: CC(C)C[C@@H]1NC(=O)[C@H](CC(=O)O)NC(=O)[C@@H](N)CSSC[C@@H](C(=O)NCC(N)=O)NC(=O)[C@H](Cc2c[nH]c3ccccc23)NC(=O)[C@@H]2CCCN2C(=O)[C@H](CO)NC(=O)[C@H](C)NC1=O
notes: Synthetic peptide from Fmoc synthesis on RinkAmide resin, oxidised in PBS with 10% DMSO; also called cyclic DLASPW peptide
Turning to B5, the Kd is over 5000 µM in experiment [1], 62.8 µM in experiment [2] and 46.2 µM in experiment [3].

Source of the values: US20080032340A1 (UNIVERSITY OF ARIZONA, published 2008).
